# Data: paper PMC7566557 (Brain Communications, 2020)
# Read-outs that look alike come from different tables or passages of the source.
# How the values were obtained:
# [1] = biological target: Myc-(C32G)CAP2 (UniProt P40123); test: proximity ligation
# [2] = biological target: cofilin (endogenous, primary hippocampal neurons) (rat (endogenous in primary hippocampal neurons)) (UniProt P45592); test: proximity ligation
# [3] = biological target: the molecule itself; test: non-reducing SDS-PAGE with Western blot
# [4] = biological target: the molecule itself; test: non-reducing SDS-PAGE with Western blot; remark: listed apart in the source
# cofilin (endogenous, primary hippocampal neurons) (rat (endogenous in primary hippocampal neurons)), sequence (P45592 whole entry): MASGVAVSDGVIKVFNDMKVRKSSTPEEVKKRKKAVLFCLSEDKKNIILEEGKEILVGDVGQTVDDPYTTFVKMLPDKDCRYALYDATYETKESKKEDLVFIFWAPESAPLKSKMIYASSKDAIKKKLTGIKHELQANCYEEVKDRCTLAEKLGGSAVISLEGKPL
molecule,measurement,setting,value
EGFP-CAP2 (from UniProt Q9CYT6 1-476) (natural protein),PLA clusters/μm,[1],0.566 clusters/μm
same,PLA clusters/μm (cLTP),[1],0.461 clusters/μm
Myc-(C32G)CAP2 (from UniProt P40123 1-477) (natural protein),PLA clusters/μm,[2],0.0144 clusters/μm
same,PLA clusters/μm (cLTP),[2],0.0315 clusters/μm
Myc-CAP2 (from UniProt Q9CYT6 1-476) (natural protein),PLA clusters/μm,[2],0.032 clusters/μm
same,PLA clusters/μm (CTRL),[2],0.0317 clusters/μm
same,PLA clusters/μm (cLTP),[2],0.0984 clusters/μm
"CAP2 (endogenous, human hippocampus) (natural protein) MANMQGLVERLERAVSRLESLSAESHRPPGNCGEVNGVIAGVAPSVEAFDKLMDSMVAEFLKNSRILAGDVETHAEMVHSAFQAQRAFLLMASQYQQPHENDVAALLKPISEKIQEIQTFRERNRGSNMFNHLSAVSESIPALGWIAVSPKPGPYVKEMNDAATFYTNRVLKDYKHSDLRHVDWVKSYLNIWSELQAYIKEHHTTGLTWSKTGPVASTVSAFSVLSSGPGLPPPPPPLPPPGPPPLFENEGKKEESSPSRSALFAQLNQGEAITKGLRHVTDDQKTYKNPSLRAQGGQTQSPTKSHTPSPTSPKSYPSQKHAPVLELEGKKWRVEYQEDRNDLVISETELKQVAYIFKCEKSTIQIKGKVNSIIIDNCKKLGLVFDNVVGIVEVINSQDIQIQVMGRVPTISINKTEGCHIYLSEDALDCEIVSAKSSEMNILIPQDGDYREFPIPEQFKTAWDGSKLITEPAEIMA",stoichiometry N,[3],2
"CAP2 (endogenous, mouse hippocampus) (natural protein) MTDMAGLMERLERAVIRLEQLSAGLDGPPRGCGEVNGVNGGVAPSVEAFDKLINSMVAEFLKNSRVLAGDVETHAEMVHGAFQAQRAFLLMVSQYQQPQENEVAVLLKPISEKIQEIQTFRERNRGSNMFNHLSAVSESIAALGWIAVSPKPGPYVKEMNDAATFYTNRVLKDYKHSDLRHVDWVRSYLNIWSELQAYIREHHTTGLTWSKTGPVASTASAFSILSSGPGLPPPPPPPPPPGPPPPFENEDKKEEPSPSRSALFAQLNQGEAITKGLRHVTDDKKTYKNPSLRAQGQIRSPTKTHTPSPTSPKSNSPQKHTPVLELEGKKWRVEYQEDRNDLVISETELKQVAYIFKCDKSTLQIKGKVNSITVDNCKKFGLVFDHVVGIVEVINSKDIQIQVMGRVPTISINKTEGCHLYLSEDALDCEIVSAKSSEMNVLVPQDDDYREFPIPEQFKTIWDGSKLVTEPAEIMA",stoichiometry N,[3],2
Myc-CAP2 (natural protein) MTDMAGLMERLERAVIRLEQLSAGLDGPPRGCGEVNGVNGGVAPSVEAFDKLINSMVAEFLKNSRVLAGDVETHAEMVHGAFQAQRAFLLMVSQYQQPQENEVAVLLKPISEKIQEIQTFRERNRGSNMFNHLSAVSESIAALGWIAVSPKPGPYVKEMNDAATFYTNRVLKDYKHSDLRHVDWVRSYLNIWSELQAYIREHHTTGLTWSKTGPVASTASAFSILSSGPGLPPPPPPPPPPGPPPPFENEDKKEEPSPSRSALFAQLNQGEAITKGLRHVTDDKKTYKNPSLRAQGQIRSPTKTHTPSPTSPKSNSPQKHTPVLELEGKKWRVEYQEDRNDLVISETELKQVAYIFKCDKSTLQIKGKVNSITVDNCKKFGLVFDHVVGIVEVINSKDIQIQVMGRVPTISINKTEGCHLYLSEDALDCEIVSAKSSEMNVLVPQDDDYREFPIPEQFKTIWDGSKLVTEPAEIMA,stoichiometry N,[4],2
"CAP2 (endogenous, primary hippocampal neurons) (natural protein) MADMLGLMQRLEFAVSRLERLSSGLHEPPGGCGEVNSLSRGIVAPSVEAFDKLINSMVAEFLKNSRVLAGDVETHAEMVHGAFQAQRAFLLMVSQHQQPQENEVAVLLKPISEKIQEIQTFRERNRGSDMFNHLSAVSESIAALGWIAVSPKPGPYVKEMNDAATFYTNRVLRDYKHSDLRHVDWVRSYLKIWSELQAYIKEHHTTGLTWSKTGPVASTASAFSILSSGPGLPPPPPPPPPPGPPPPFENEGGKEEPSPSRSALFAQLNQGEAITKGLRHVTDDKKIYKNPSLRAQGQIRSPTKTRTPSPTSSKSNSPQKHAPVLELEGKKWRVEYQEDRNDLVISETELKQVAYIFKCDKSTLQIKGKVNSITVDNCKKFGLVFDHVVGIVEVINSKDIQIQVMGRVPTISINKTEGCHLYLSKDALDCEIVSAKSSEMNVLVPQGDDYREFPIPEQFKTIWDGSKLITEPAEIMA",stoichiometry N,[3],2
"CAP2 (endogenous, rat hippocampus) (natural protein) MADMLGLMQRLEFAVSRLERLSSGLHEPPGGCGEVNSLSRGIVAPSVEAFDKLINSMVAEFLKNSRVLAGDVETHAEMVHGAFQAQRAFLLMVSQHQQPQENEVAVLLKPISEKIQEIQTFRERNRGSDMFNHLSAVSESIAALGWIAVSPKPGPYVKEMNDAATFYTNRVLRDYKHSDLRHVDWVRSYLKIWSELQAYIKEHHTTGLTWSKTGPVASTASAFSILSSGPGLPPPPPPPPPPGPPPPFENEGGKEEPSPSRSALFAQLNQGEAITKGLRHVTDDKKIYKNPSLRAQGQIRSPTKTRTPSPTSSKSNSPQKHAPVLELEGKKWRVEYQEDRNDLVISETELKQVAYIFKCDKSTLQIKGKVNSITVDNCKKFGLVFDHVVGIVEVINSKDIQIQVMGRVPTISINKTEGCHLYLSKDALDCEIVSAKSSEMNVLVPQGDDYREFPIPEQFKTIWDGSKLITEPAEIMA",stoichiometry N,[3],2
